{"source": "the DeepSol protein solubility set", "data": [{"test": "soluble on expression in E. coli; label from the status in PepcDB or PDB records", "values": [{"sequence": "MSLSKSLQKPTILNVETVARSRLFTVESVDLEFSNGVRRVYERMRPTNREAVMIVPIVDDHLILIREYAVGTESYELGFSKGLIDPGESVYEAANRELKEEVGFGANDLTFLKKLSMAPSYFSSKMNIVVAQDLYPESLEGDEPEPLPQVRWPLAHMMDLLEDPDFNEARNVSALFLVREWLKGQGRVEGGSHHHHHH", "soluble on expression in E. coli": "soluble"}, {"sequence": "LFDRVLVAYDFSKWADRALEYAKFVVKKTGGELHIIHVSEDGDKTADLRVMEEVIGAEGIEVHVHIESGTPHKAILAKREEINATTIFMGSRGAGSVMTMILGSTSESVIRRSPVPVFVCKRGDDE", "soluble on expression in E. coli": "not soluble"}, {"sequence": "AANDNNVEWNGLFHDQGPLFDNAPEPTSTQSVTLKLRTFKGDITSANIKYWDTADNAFHWVPMVWDSNDPTGTFDYWKGTIPASPSIKYYRFQINDGTSTAWYNGNGPSSTEPNADDFYIIPNFKTPDWLKNGVMYQIFPDRFYNGDSSNDVQTGSYTYNGTPTEKKAWGSSVYADPGYDNSLVFFGGDLAGIDQKLGYIKKTLGANILYLNPIFKAPTNHKYDTQDYMAVDPAFGDNSTLQTLINDIHSTANGPKGYLILDGVFNHTGDSHPWFDKYNNFSSQGAYESQSSPWYNYYTFYTWPDSYASFLGFNSLPKLNYGNSGSAVRGVIYNNSNSVAKTYLNPPYSVDGWRLDAAQYVDANGNNGSDVTNHQIWSEFRNAVKGVNSNAAIIGEYWGNANPWTAQGNQWDAATNFDGFTQPVSEWITGKDYQNNSASISTTQFDSWLRGTRANYPTNVQQSMMNFLSNHDITRFATRSGGDLWKTYLALIFQMTYVGTPTIYYGDEYGMQGGADPDNRRSFDWSQATPSNSAVALTQKLITIRNQYPALRTGSFMTLITDDTNKIYSYGRFDNVNRIAVVLNNDSVSHTVNVPVWQLSMPNGSTVTDKITGHSYTVQNGMVTVAVDGHYGAVLAQ", "soluble on expression in E. coli": "soluble"}, {"sequence": "SKGIKSEEVKINNIAIEINKATKRDPGNCNLDNHIKPSPDSSLDNQMKLSCESAPDQNFSICSASEVETNPLENTAAASTLLSQAKIDEDRTFPGSAPNQQHSVLSDEASINRKNRDVPPNHSQLKHDSHLEITIPKSLKLKDSEKVDEKQLVIDAGHKRFGAVSCNICGMLYTASNPEDETQHLLFHNQFISAVKYVVLLINHHECGSEEEFITSLFLSMSNFRYTQRSLLPY", "soluble on expression in E. coli": "soluble"}, {"sequence": "MGSDKIHHHHHHMSGPQKANDLLGQIPKTKGLPPVHLWNPDFCGDIDMRIARDGTWYYLGTPIGRKPMVKLFSTIIRRDGDDYFLITPVEKVGIKVDDAPFVAIAVEMEGEGEAQVLRFTTNVDETTEAGAEHLIRVEIDPVTQEPAPYVHVRTNLEALIHRNVFYQLVELAVSREIDGQRWLGVWSGGEFFRIGLEP", "soluble on expression in E. coli": "not soluble"}, {"sequence": "GPLGSSMEDHDDHLRRKFMEFPYVSPTRKQLMVDLMSTVENRLQSQLLPCNLPPDVRNFNNPNGSAEASLHIRSGDKSSPIDFVIGSWIHCKIPTGVSLNITSISGFLNSSTKAPNFVVELIQSSSKSLVLILDLPHRKDLVLNPDYLKEYYQDTALDSHRQSLLKLPEVNPYVSPSLFVRSAFSPTASMLKIDAEEEDKLEEILRDHVSPAAKEVLEVWLERCVKEEEEKIVVGEEERMELERRDKSFRRKSIEDDLDLQFPRMFGEEVSSRVVHAIKEAFGVL", "soluble on expression in E. coli": "soluble"}, {"sequence": "MSPIPTTAETRKINEAAELMVNFWMSFACVEKEKEQMASIFEKMNGLFAAPSTTSTASLFGKYEGLFETTEVATEDFNTLWWNYPAQPSFPQLPVFVRSPIDSIKIYGAIQHDFGMSEDESVQYPSPISPSSDSSSETITHVSPGYLLQEVFLQRAVIEEQKKIIDGFHEIQKLNKKLAALHNNFTY", "soluble on expression in E. coli": "not soluble"}, {"sequence": "MATAAETSASEPEAESKAGPKADGEEDEVKAARTRRKVLSRAVAAATYKTMGPAWDQQEEGVSESDGDEYAMASSAESSPGEYEWEYDEEEEKNQLEIERLEEQLSINVYDYNCHVDLIRLLRLEGELTKVRMARQKMSEIFPLTEELWLEWLHDEISMAQDGLDREHVYDLFEKAVKDYICPNIWLEYGQYSVGGIGQKGGLEKVRSVFERALSSVGLHMTKGLALWEAYREFESAIVEAARLEKVHSLFRRQLAIPLYDMEATFAEYEEWSEDPIPESVIQNYNKALQQLEKYKPYEEALLQAEAPRLAEYQAYIDFEMKIGDPARIQLIFERALVENCLVPDLWIRYSQYLDRQLKVKDLVLSVHNRAIRNCPWTVALWSRYLLAMERHGVDHQVISVTFEKALNAGFIQATDYVEIWQAYLDYLRRRVDFKQDSSKELEELRAAFTRALEYLKQEVEERFNESGDPSCVIMQNWARIEARLCNNMQKARELWDSIMTRGNAKYANMWLEYYNLERAHGDTQHCRKALHRAVQCTSDYPEHVCEVLLTMERTEGSLEDWDIAVQKTETRLARVNEQRMKAAEKEAALVQQEEEKAEQRKRARAEKKALKKKKKIRGPEKRGADEDDEKEWGDDEEEQPSKRRRVENSIPAAGETQNVEVAAGPAGKCAAVDVEPPSKQKEKAASLKRDMPKVLHDSSKDSITVFVSNLPYSMQEPDTKLRPLFEACGEVVQIRPIFSNRGDFRGYCYVEFKEEKSALQALEMDRKSVEGRPMFVSPCVDKSKNPDFKVFRYSTSLEKHKLFISGLPFSCTKEELEEICKAHGTVKDLRLVTNRAGKPKGLAYVEYENESQASQAVMKMDGMTIKENIIKVAISNPPQRKVPEKPETRKAPGGPMLLPQTYGARGKGRTQLSLLPRALQRPSAAAPQAENGPAAAPAVAAPAATEAPKMSNADFAKLFLRK", "soluble on expression in E. coli": "soluble"}, {"sequence": "MGSDKIHHHHHHMSKLNMKEWINEIIQKKEVVAMPIMTHPGIEMIGKTVRDAVTDGQVHYNAIKALSEKYPTAAATVIMDLTVEAEAFGAEIVFPENEVPSVVGRLLNDEEAIDKLEIPALNKGRIPQYLKANMLAAKTITDRPVFAGCIGPYSLAGRLYDMSEIMMLIYINPEAANSLLKKCSDFILRYCMALKATGVNGVVMAEPAAGLLSDEDCTQYSSVFIKEIVEKVQDDHFTVILHNCGNTGHCTKAMVATGAAAYHFGNKIDMVEALKEVPADALAMGNLDPVSLFKAATPEVMKKATLDLLEATRSYPNFVLSSGCDTPPHTPSENIDAFFAALNEFNNA", "soluble on expression in E. coli": "not soluble"}, {"sequence": "MGSDKIHHHHHHMPYDSTDREIMRFLQGDIPLESRPYKNLAERLELSEEEIVLRVKKLREKGFLRRMGAVLRHRQAGFAVNAMVAWKLENEEQADRAGKIMAGYKEISHCYIREVPPDFDYSIFSMIHVKNEERLAEIIEEISLQTGIGKYIIIRSSRELKKESMQYF", "soluble on expression in E. coli": "not soluble"}, {"sequence": "MGSDKIHHHHHHMSLDRVDWPHATFSTPVKRIFDTQTTLDFQSSLAIHRIKYHLHKYTTLISHCSDPDPHATASSIAMVNGLMGVLDKLAHLIDETPPLPGPRRYGNLACREWHHKLDERLPQWLQEMLPSEYHEVVPELQYYLGNSFGSSTRLDYGTGHELSFMATVAALDMLGMFPHMRGADVFLLFNKYYTIMRRLILTYTLEPAGSHGVWGLDDHFHLVYILGSSQWQLLDAQAPLQPREILDKSLVREYKDTNFYCQGINFINEVKMGPFEEHSPILYDIAVTVPRWSKVCKGLLKMYSVEVLKKFPVVQHFWFGTGFFPWVNIQNGTDLPVFEEKEEESIEQANAGSPGREQTSTRFPTSTSMPPPGVPPSGNNINYLLSHQNQSHRNQTSFSRDRLRR", "soluble on expression in E. coli": "not soluble"}, {"sequence": "MEVVEAAAAQLETLKFNGTDFGVGEGPAAPSPGSAPVPGTQPPLQSFEGSPDAGQTVEVKPAGEQPLQPVLNAVAAGTPAPQPQPPAESPACGDCVTSPGAAEPARAPDSLETSDSDSDSDSETDSDSSSSSSSSSSSSSSSSSSCISLPPVLSDGDDDLQVEKENKNFPLKTKDELLLNELPSVEELTIILPEDIELKPLGMVSSIIEQLVIIESMTNLPPVNEETVIFKSDRQAAGKIFEIFGPVAHPFYVLRFNSSDHIESKGIKIKETMYFAPSMKDFTQYIFTEKLKQDKGSDASWKNDQEPPPEALDFSDDEKEKEAKQRKKSQIQGRKKLKSEFNEPGEDFTEVHQNWNAHSSASEHAKGYRNREFTRGFSRARYPRSCHGRPPPQHFYNSEHMVSQETSGFPSQRQNNPIMPQYPFPLPVFDMHNFPLRPPPPPPPPPVNMGWATPNMAAHPLLNLPYSLPPPPPPPPLPPPPSSGDSNSHFGPYY", "soluble on expression in E. coli": "soluble"}, {"sequence": "MSSAAADESDAVLENLIAKEILPQTGNWEGTEEFLNRIVQVLLKYIKDQNDRDQKILEFHHPDKMQMLMDLSIPEKPESLLKLVKSCEDVLRLGVRTGHPRFFNQISCGLDLVSMAGEWLTATANTNMFTYEIAPVFILMEKSVMARMWEAVGWDPEKADGIFAPGGAIANLYAMNAARHQLWPRSKHLGMKDIPTLCCFTSEDSHYSIKSASAVLGIGADYCFNIPTDKNGKMIPEALEAKIIECKKEGLTPFFACCTAGSTVYGAFDPLERVANICERHKLWFHVDAAWGGGMLLSPEHRYKLAGIERANSVTWNPHKLMGALLQCSACLFRQDGLLFQCNQMSADYLFQQDKPYDVSFDTGDKAIQCGRHNDVFKLWLMWKSKGMEGYRQQINKLMDLANYFTRRIKETEGFELIIENPEFLNICFWYVPSKIRNLEPAEMRARLEKIAPKIKAGMMQRGTTMVGYQPDKQRPNFFRMIISNQAITREDLDFLIKEIVDIGESLE", "soluble on expression in E. coli": "not soluble"}, {"sequence": "MGSDKIHHHHHHMAAEIIAVTQQKGGVGKSTIAMHLGAAFHEKGRRVLVIDADGQNTLVHWSSSSADSESGIPFPVVNLAEAGSQIHREIKKFINDYDIIIVDCPPSITEKVSGVVLLAATIAVIPTSSSPADYWSSVGLVKLIQQAQVMNEDLRAVFLLNKTEEKRMLTRELKRALEELGFPLLKTQIPTREAYKQAMALGQTVLQMNDRGAKLAAAEIRACADEIVAMLP", "soluble on expression in E. coli": "not soluble"}, {"sequence": "MNKTWWKEAVAYQIYPRSFMDSNGDGIGDLQGIIAKLDYLKDLGIDVIWICPMYKSPNDDNGYDISDYQDIMDEFGTMEDFDALLDEVHKRDMKLIIDLVINHTSDEHPWFIESRSSKDNPKRDWYIWHDGKDGAEPNNWESIFNGSAWEYDEVTGQYYLHLFSRKQPDLNWENKEVREVLYDTVNWWLDKGIDGFRVDAISHIKKEDGFKDMPNPKGLKYVPSFDKHMNVDGIQPLLEELKENTFSKYDIMTVGEANGVKIEDAELWVGEEQGKFNMVFQFEHLSLWDAEKKKDLDVVGLKKVLTKWQKGLENKGWNALYIENHDKPRIVSTWGDDKQYWRESATALGAMYFFMHGTPFIYQGQEIGMTNVQFPNIEDYDDVAIKNLYREKIAEGVSHQDMMEIIWASCRDNSRTPMHWDDEINAGFTTGTPWFGMNQNYKEINVAKQKNEENSIFNFYKKMIALKKEHDVLNYGTYDLLLEDDPQIYAYTRTLNDEKIVVISNISKEEAVYNEDLFALERKRLLLNNYEVAEHEQLTTITLKPYETRVYRIS", "soluble on expression in E. coli": "not soluble"}, {"sequence": "MHLDRQSLEKAKHLIQSGLIDTIEVGTIKGLQEIHRFLFEGLYEFAGKIRDKNIAKGNFRFANCLYLDLILPRIESMPQNNFNQIVEKYVEMNIAHPFLEGNGRATRIWLDLLLKKELKKIVLWDRIDKAAYLSAMERSPVNDLEIKTLLKKHLSSNTNDPLTLIKGITQSYYYEGLLEHHHHHH", "soluble on expression in E. coli": "not soluble"}, {"sequence": "MSYPSMSSFSTNVPDSENSSRSSVDGYNLKDTTSEKIKQFRENNKRKTSNSSSEEEPETEEGDPSRKLSSKSAEDKFVGRGIDAPRGRIANIRRESSCSVDSEAAHERLTKASQQVSTGFDDIALDSERSPGTSAEFRRRAPSFNTVIGEPISVVTNAFIPHSCSPSPTRQQADLIKQCYSPSTQQMVRPNISYSPSPRESPAQSPTRHAHKLKFQRAESPICRQPIKRKLTVTTLAETDIKRLFVPRSNTSPLVTDKTFPYPQNVGQLFESASTSSEFSSFSVPHSPGPLRAMTPLSSVSVGDQEENSPSVKDAEEKTTDNDEEMQDVEMSDNGTEVDDDLIRAATEAPLPDDDDQNDFAY", "soluble on expression in E. coli": "not soluble"}]}]}
